Results from the supplement of paper PMC10065799, “High-throughput profiling of sequence recognition by tyrosine kinases and SH2 domains using bacterial peptide display” (eLife, 2023).

biological target: Grb2 SH2 (UniProt P62993); test: SH2 binding enrichment of the phosphorylated peptide, bacterial display (enrichment ratio); higher = better substrate or ligand; peptides without Tyr show the background
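Further: peptide library displayed on the E. coli surface as eCPX fusions, selected cells deep-sequenced, score is each peptide's frequency after selection divided by its frequency in the input.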

Grb2 SH2, sequence (P62993 whole entry, looked up, the tested form may be a part): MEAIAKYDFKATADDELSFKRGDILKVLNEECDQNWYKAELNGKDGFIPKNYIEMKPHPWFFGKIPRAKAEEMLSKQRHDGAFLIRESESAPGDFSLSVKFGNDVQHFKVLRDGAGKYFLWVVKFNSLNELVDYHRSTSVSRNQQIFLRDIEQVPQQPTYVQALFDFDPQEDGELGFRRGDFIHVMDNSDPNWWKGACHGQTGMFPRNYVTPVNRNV

Compared with LNCIFYKDQTG [RS1_Y166_W163C_YF], KTKLGYSPLHQ [ANK1_Y735] is higher in SH2 binding enrichment: 0.75 for the first, 1.2 for the second.

QNTGVYFDLFG [PTPN11_Y62_D61V_YF] and CKLYQYYLDHL [ATRX_Y1849] are the same in SH2 binding enrichment: 0.731 for the first, 0.731 for the second.

First: SDGHEYIFVDP [PDGFRB_Y579_YF]
Second: LHRAHYDLRHT [AHSG_Y314]
The SH2 binding enrichment of the first is lower: 0.769 for the first, 1.83 for the second.

Going from ILGRYYERGSI [PAX5_Y73_T75R] to EKLIQYCQSKG [AKR1B1_Y199], the SH2 binding enrichment falls from 0.889 to 0.854.

Going from CRAVKYLQMVR [AVPR2_Y117_G122R] to YGMQLYQNYMH [GRB14_Y347], the SH2 binding enrichment rises from 1.01 to 6.36.

Compared with PSSNLYFRCLT [CNGA3_Y168_W171C_YF], KMGNIYRTEYG [MRPL3_Y265] is higher in SH2 binding enrichment: 0.75 for the first, 0.884 for the second.

Compared with PLDGEHFTLQI [TP53_Y327_Y327H], RKKLFYKADGE [SERPINC1_Y272_E269K] is higher in SH2 binding enrichment: 0.644 for the first, 0.733 for the second.

Going from SVTCPYSPALN [TP53_Y126_T125P] to RRIYSYRGHLW [VHL_Y112_H110Y], the SH2 binding enrichment falls from 0.939 to 0.774.

First: HLDRSYSFSFS [PEAR1_Y890_R885H_YF]
Second: TRSYDYMEGGD [FGF7_Y58]
The SH2 binding enrichment of the first is lower: 0.808 for the first, 0.871 for the second.

First: KMLEKYKERLN [TLK2_Y259]
Second: KEINDYVEKGT [SERPINA1_Y184_Q180E]
The SH2 binding enrichment of the first is lower: 0.838 for the first, 0.981 for the second.

First: TNGFTCGSSHQ [MANEA_Y331_Y331C]
Second: IENKLYGMSDP [RET_Y1062]
The SH2 binding enrichment of the first is lower: 0.791 for the first, 0.811 for the second.

Compared with EHTILYSNNST [KANSL1_Y223_T221I], QCTSHYPEHVC [SART3_Y541_D540H] is higher in SH2 binding enrichment: 0.845 for the first, 0.966 for the second.

Compared with YARECYSALPQ [SARS2_Y52_G51C], ARVANYHRDGP [CAT_Y386_Q387H] is higher in SH2 binding enrichment: 0.74 for the first, 0.776 for the second.

Going from GSETPYVDRTP [ESS2_Y335] to GSTLSYGRDGR [MATR3_Y158_P154S], the SH2 binding enrichment falls from 0.814 to 0.793.

First: KDFTIHNPNLL [VANGL1_Y290_Y290H]
Second: GRQGIYKENER [GPR143_Y231_T232K]
The SH2 binding enrichment of the first is higher: 0.812 for the first, 0.735 for the second.

Compared with IFHLSYLHNCE [PDE6B_Y227_YF], VIVRMYDYHVL [RPF2_Y109_G106V] is higher in SH2 binding enrichment: 1.18 for the first, 1.54 for the second.

For PSSNLYYRCLT [CNGA3_Y168_W171C], the SH2 binding enrichment was 0.936.

biological target: c-Src SH2; test: as above

First: LNCIFYKDQTG [RS1_Y166_W163C_YF]
Second: KTKLGYSPLHQ [ANK1_Y735]
The SH2 binding enrichment of the first is lower: 0.502 for the first, 0.849 for the second.

Going from QNTGVYFDLFG [PTPN11_Y62_D61V_YF] to CKLYQYYLDHL [ATRX_Y1849], the SH2 binding enrichment falls from 0.661 to 0.391.

First: SDGHEYIFVDP [PDGFRB_Y579_YF]
Second: LHRAHYDLRHT [AHSG_Y314]
The SH2 binding enrichment of the first is lower: 0.769 for the first, 1.19 for the second.

Compared with ILGRYYERGSI [PAX5_Y73_T75R], EKLIQYCQSKG [AKR1B1_Y199] is lower in SH2 binding enrichment: 0.84 for the first, 0.572 for the second.

First: CRAVKYLQMVR [AVPR2_Y117_G122R]
Second: YGMQLYQNYMH [GRB14_Y347]
The SH2 binding enrichment of the first is lower: 0.62 for the first, 1.6 for the second.

Going from PSSNLYFRCLT [CNGA3_Y168_W171C_YF] to KMGNIYRTEYG [MRPL3_Y265], the SH2 binding enrichment rises from 0.379 to 0.529.

Compared with PLDGEHFTLQI [TP53_Y327_Y327H], RKKLFYKADGE [SERPINC1_Y272_E269K] is lower in SH2 binding enrichment: 0.451 for the first, 0.338 for the second.

Going from SVTCPYSPALN [TP53_Y126_T125P] to RRIYSYRGHLW [VHL_Y112_H110Y], the SH2 binding enrichment falls from 0.556 to 0.501.

First: HLDRSYSFSFS [PEAR1_Y890_R885H_YF]
Second: TRSYDYMEGGD [FGF7_Y58]
The SH2 binding enrichment of the first is lower: 0.563 for the first, 6.41 for the second.

Compared with KMLEKYKERLN [TLK2_Y259], KEINDYVEKGT [SERPINA1_Y184_Q180E] is lower in SH2 binding enrichment: 0.693 for the first, 0.461 for the second.

Going from TNGFTCGSSHQ [MANEA_Y331_Y331C] to IENKLYGMSDP [RET_Y1062], the SH2 binding enrichment falls from 0.544 to 0.533.

First: EHTILYSNNST [KANSL1_Y223_T221I]
Second: QCTSHYPEHVC [SART3_Y541_D540H]
The SH2 binding enrichment of the first is lower: 0.691 for the first, 0.699 for the second.

First: YARECYSALPQ [SARS2_Y52_G51C]
Second: ARVANYHRDGP [CAT_Y386_Q387H]
The SH2 binding enrichment of the first is higher: 0.776 for the first, 0.49 for the second.

Going from GSETPYVDRTP [ESS2_Y335] to GSTLSYGRDGR [MATR3_Y158_P154S], the SH2 binding enrichment falls from 0.573 to 0.465.

Compared with KDFTIHNPNLL [VANGL1_Y290_Y290H], GRQGIYKENER [GPR143_Y231_T232K] is lower in SH2 binding enrichment: 0.444 for the first, 0.443 for the second.

Going from IFHLSYLHNCE [PDE6B_Y227_YF] to VIVRMYDYHVL [RPF2_Y109_G106V], the SH2 binding enrichment rises from 0.862 to 1.36.

PSSNLYYRCLT [CNGA3_Y168_W171C] showed an SH2 binding enrichment of 0.484.
